Assay results published in patent publication US20170210805A1 (published 2017).

Columns and labels:
[1] = target: water-soluble hFcRn (human) (UniProt P55899); assay: SPR (Proteon XPR36), shFcRn immobilized on GLC chip, hIgG1 as analyte, pH 6.0
[2] = target: T1, human FcRn (co-crystal with HL161BK Fab) (human, UniProt P55899 24-297; P61769 21-119); assay: X-ray co-crystal structure at 2.4 Å
T1 construct: also called hFcRn
T1 sequence (P55899 24-297 limits assumed, chain 1 of 2): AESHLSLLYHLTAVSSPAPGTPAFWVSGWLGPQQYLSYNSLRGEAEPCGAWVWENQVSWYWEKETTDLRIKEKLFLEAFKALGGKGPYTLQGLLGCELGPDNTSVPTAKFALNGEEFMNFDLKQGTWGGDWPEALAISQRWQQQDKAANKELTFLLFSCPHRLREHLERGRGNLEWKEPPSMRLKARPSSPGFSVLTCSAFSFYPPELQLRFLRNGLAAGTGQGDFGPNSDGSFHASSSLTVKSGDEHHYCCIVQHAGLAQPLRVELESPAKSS
T1 sequence (P61769 21-119 limits assumed, chain 2 of 2): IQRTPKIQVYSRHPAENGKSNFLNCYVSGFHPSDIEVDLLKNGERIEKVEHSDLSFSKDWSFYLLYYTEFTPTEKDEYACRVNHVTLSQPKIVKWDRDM
From the text: There are two copies each of hFcRn and HL161BK Fab per asymmetric unit. […] A data set was collected at ESRF beamline ID30A-1.

water-soluble hFcRn (human), sequence (P55899 24-297 limits assumed, chain 1 of 2): as the sequence (P55899 24-297 limits assumed, chain 1 of 2) above
water-soluble hFcRn (human), sequence (b2m, as listed by the source limits assumed, chain 2 of 2): as the sequence (P61769 21-119 limits assumed, chain 2 of 2) above

Molecule	Kd [1]	koff [1]	kon [1]	binding result [2]
hIgG1 (antibody)	1.4 nM	0.00046 s⁻¹	320000 M⁻¹ s⁻¹	
HL161BK antibody Fab fragment (Fab, V domains shown, HL161BK is HL161B with asparagine (N) at position 83 of the heavy-chain variable framework replaced by lysine (K); It was used as a Fab in the crystal; also called HL161BK Fab) VH: QLLLQESGPGLVKPSETLSLTCTVSGGSLSSSFSYWVWIRQPPGKGLEWIGTIYYSGNTYYNPSLKSRLTISVDTSKNHFSLKLSSVTAADTAVYYCARRAGILTGYLDSWGQGTLVTVSS VL: SYVLTQSPSVSVAPGQTARITCGGNNIGSKSVHWYQQKPGQAPVLVVYDDSDRPSGIPERFSASNSGNTATLTISRVEAGDEADYYCQVWDSSSDHVVFGGGTKLTVLGQPKAAPSVTL				binds
